Test results published in paper PMC5428533.
pKd: −log10 of the molar value.

Assays:
[1] = biological target: complement component C9 (human) (UniProt P02748); experiment: MST; FH (6.67 µM) or C9 (15.15 µM) labelled with NT-647 RED-NHS; non-labelled CbiA diluted 1:2 from 76 to 0.0002 µM; fluid phase, 20% LED power, 80% MST power, 30 s, Monolith NT.115, room temperature, triplicate
[2] = biological target: complement regulator Factor H (FH) (human) (UniProt P08603); experiment: as above
Chain of UniProt P08603 (P08603 19-1231): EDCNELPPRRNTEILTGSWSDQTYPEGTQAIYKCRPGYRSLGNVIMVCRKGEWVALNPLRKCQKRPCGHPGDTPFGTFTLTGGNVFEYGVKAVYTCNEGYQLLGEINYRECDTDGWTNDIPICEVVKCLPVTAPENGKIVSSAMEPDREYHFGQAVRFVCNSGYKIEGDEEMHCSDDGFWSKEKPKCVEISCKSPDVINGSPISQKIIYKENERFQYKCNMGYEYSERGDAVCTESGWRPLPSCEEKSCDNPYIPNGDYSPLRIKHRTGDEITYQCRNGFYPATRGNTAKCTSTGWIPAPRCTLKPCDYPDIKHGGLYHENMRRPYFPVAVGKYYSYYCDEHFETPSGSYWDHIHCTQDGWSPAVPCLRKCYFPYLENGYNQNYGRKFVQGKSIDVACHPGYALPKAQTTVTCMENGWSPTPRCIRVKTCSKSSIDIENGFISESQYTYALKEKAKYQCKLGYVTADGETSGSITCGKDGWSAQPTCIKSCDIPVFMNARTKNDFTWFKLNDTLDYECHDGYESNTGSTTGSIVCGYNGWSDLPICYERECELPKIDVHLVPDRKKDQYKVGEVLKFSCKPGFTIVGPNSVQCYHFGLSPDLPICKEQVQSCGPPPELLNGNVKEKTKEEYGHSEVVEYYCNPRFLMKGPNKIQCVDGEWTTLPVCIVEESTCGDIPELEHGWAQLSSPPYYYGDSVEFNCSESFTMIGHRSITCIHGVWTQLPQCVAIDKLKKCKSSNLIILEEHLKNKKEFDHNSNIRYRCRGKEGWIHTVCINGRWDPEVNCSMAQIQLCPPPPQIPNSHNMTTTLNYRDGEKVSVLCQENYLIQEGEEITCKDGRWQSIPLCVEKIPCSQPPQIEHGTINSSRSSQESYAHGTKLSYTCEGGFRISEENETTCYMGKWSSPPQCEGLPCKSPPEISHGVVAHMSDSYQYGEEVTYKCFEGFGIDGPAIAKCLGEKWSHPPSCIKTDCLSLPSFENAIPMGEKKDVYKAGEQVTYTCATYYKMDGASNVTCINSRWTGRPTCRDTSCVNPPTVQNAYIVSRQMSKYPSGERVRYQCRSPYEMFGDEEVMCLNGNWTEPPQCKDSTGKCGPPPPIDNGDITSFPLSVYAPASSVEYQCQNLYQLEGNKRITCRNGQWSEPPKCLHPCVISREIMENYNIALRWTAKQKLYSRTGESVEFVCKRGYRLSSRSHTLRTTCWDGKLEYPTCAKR

Chain of UniProt P02748 (P02748 22-559): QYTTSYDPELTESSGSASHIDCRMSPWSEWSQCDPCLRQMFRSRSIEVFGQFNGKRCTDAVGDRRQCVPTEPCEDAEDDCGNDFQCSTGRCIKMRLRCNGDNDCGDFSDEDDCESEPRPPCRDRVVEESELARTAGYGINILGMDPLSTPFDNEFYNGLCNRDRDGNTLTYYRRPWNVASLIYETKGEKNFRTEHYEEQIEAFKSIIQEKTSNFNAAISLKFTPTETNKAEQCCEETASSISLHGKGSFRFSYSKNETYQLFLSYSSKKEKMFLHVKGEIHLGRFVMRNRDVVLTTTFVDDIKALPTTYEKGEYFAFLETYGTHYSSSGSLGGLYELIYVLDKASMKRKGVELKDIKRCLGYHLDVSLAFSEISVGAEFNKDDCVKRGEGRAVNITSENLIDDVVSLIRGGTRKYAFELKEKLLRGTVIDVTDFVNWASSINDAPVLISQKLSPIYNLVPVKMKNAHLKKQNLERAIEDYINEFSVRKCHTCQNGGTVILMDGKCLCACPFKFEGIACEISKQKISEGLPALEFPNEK

Question: “CbiA (complement binding and inhibitory protein A) of B. miyamotoi HT31, His6-tagged recombinant protein (natural protein)” was tested. Which pKd [1] did it give?
Answer: The pKd was 7.28.

Question: And the pKd [2]?
Answer: The pKd was 5.18.
